± gives the standard deviation of the averaged measurements.
Experiment: total protein half-life in vivo (active degradation + dilution); higher = more stable protein
[1] = E. coli NCM3722 delta-clpP delta-lon delta-hslV, growth: N-lim chemostat, doubling time 6 h
[2] = E. coli NCM3722 delta-clpP, growth: N-lim chemostat, doubling time 6 h
[3] = E. coli NCM3722 delta-hslV, growth: N-lim chemostat, doubling time 6 h
[4] = E. coli NCM3722 delta-lon, growth: N-lim chemostat, doubling time 6 h
[5] = E. coli NCM3722 delta-smpB, growth: N-lim chemostat, doubling time 6 h
[6] = wild type E. coli NCM3722, growth: C-lim chemostat, doubling time 3 h
[7] = wild type E. coli NCM3722, growth: C-lim chemostat, doubling time 6 h
[8] = wild type E. coli NCM3722, growth: C-lim chemostat, doubling time 12 h
[9] = wild type E. coli NCM3722, growth: N-lim chemostat, doubling time 6 h
[10] = wild type E. coli NCM3722, growth: N-lim chemostat, doubling time 12 h
[11] = wild type E. coli NCM3722, growth: P-lim chemostat, doubling time 6 h
[12] = wild type E. coli NCM3722, growth: P-lim chemostat, doubling time 12 h

Sequence: MLKLLKTIMRAGTATVKYPFAPLEVSPGFRGKPDLMPSQCIACGACACACPANALTIQTDDQQNSRTWQLYLGRCIYCGRCEEVCPTRAIQLTNNFELTVTNKADLYTRATFHLQRCSRCERPFAPQKTIALAAELLAQQQNAPQNREMLWAQASVCPECKQRATLINDDTDVLLVAKEQL
- total protein half-life in vivo [1]: 4.78 h

Sequence: MLKLTDITWLYHHLPMRFSLTVERGEQVAILGPSGAGKSTLLNLIAGFLTPASGSLTIDGVDHTTMPPSRRPVSMLFQENNLFSHLTVAQNIGLGLNPGLKLNAVQQGKMHAIARQMGIDNLMARLPGELSGGQRQRVALARCLVREQPILLLDEPFSALDPALRQEMLTLVSTSCQQQKMTLLMVSHSVEDAARIATRSVVVADGRIAWQGMTNELLSGKASASALLGITG
- total protein half-life in vivo [1]: 4.96 ± 0.61 h
- total protein half-life in vivo [2]: 5.67 ± 0.82 h
- total protein half-life in vivo [3]: 6.21 ± 1.1 h
- total protein half-life in vivo [4]: 5.79 ± 0.26 h
- total protein half-life in vivo [5]: 5.31 ± 0.54 h
- total protein half-life in vivo [6]: 3.03 ± 0.11 h
- total protein half-life in vivo [7]: 5.94 ± 0.4 h
- total protein half-life in vivo [8]: 10.9 ± 0.42 h
- total protein half-life in vivo [9]: 5.13 ± 0.15 h
- total protein half-life in vivo [10]: 12.6 ± 1.7 h
- total protein half-life in vivo [11]: 5.54 ± 0.3 h
- total protein half-life in vivo [12]: 11.98 ± 0.032 h

Sequence: MLKRFFITGTDTSVGKTVVSRALLQALASQGKTVAGYKPVAKGSKETPEGLRNKDALVLQSVSTIELPYEAVNPIALSEEESSVAHSCPINYTLISNGLANLTEKVDHVVVEGTGGWRSLMNDLRPLSEWVVQEQLPVLMVVGIQEGCINHALLTAQAIANDGLPLIGWVANRINPGLAHYAEIIDVLGKKLPAPLIGELPYLPRAEQRELGQYIRLAMLRSVLAVDRVTV [P0A6E9]
- total protein half-life in vivo [2]: 5.16 ± 1 h
- total protein half-life in vivo [3]: 2 ± 0.11 h
- total protein half-life in vivo [4]: 2.48 h
- total protein half-life in vivo [5]: 2.11 ± 0.046 h
- total protein half-life in vivo [6]: 2.11 ± 0.37 h
- total protein half-life in vivo [8]: 4.99 ± 0.23 h
- total protein half-life in vivo [10]: 3.5 ± 0.4 h
- total protein half-life in vivo [12]: 5.74 ± 0.84 h

Sequence: MLKRYLVLSVATAAFSLPSLVNAAQQNILSVHILNQQTGKPAADVTVTLEKKADNGWLQLNTAKTDKDGRIKALWPEQTATTGDYRVVFKTGDYFKKQNLESFFPEIPVEFHINKVNEHYHVPLLLSQYGYSTYRGS
- total protein half-life in vivo [1]: 5.28 ± 1.2 h
- total protein half-life in vivo [2]: 5.47 ± 0.54 h
- total protein half-life in vivo [3]: 5.53 h
- total protein half-life in vivo [4]: 5.8 ± 0.16 h
- total protein half-life in vivo [6]: > 4 h
- total protein half-life in vivo [8]: 7.94 ± 2 h
- total protein half-life in vivo [9]: 5.83 ± 0.21 h
- total protein half-life in vivo [10]: 8.97 ± 0.37 h
- total protein half-life in vivo [11]: 4.42 ± 0.68 h
- total protein half-life in vivo [12]: 8.8 ± 0.6 h

Sequence: MLKSPLFWKMTSLFGAVLLLLIPIMLIRQVIVERADYRSDVEDAIRQSTSGPQKLVGPLIAIPVTELYTVQEEDKTVERKRSFIHFWLPESLMVDGNQNVEERKIGIYTGQVWHSDLTLKADFDVSRLSELNAPNITLGKPFIVISVGDARGIGVVKAPEVNGTALTIEPGTGLEQGGQGVHIPLPEGDWRKQNLKLNMALNLSGTGDLSVVPGGRNSEMTLTSNWPHPSFLGDFLPAKREVSESGFQAHWQSSWFANNLGERFASGNDTGWENFPAFSVAVTTPADQYQLTDRATKYAILLIALTFMAFFVFETLTAQRLHPMQYLLVGLSLVMFYLLLLALSEHTGFTVAWIIASLIGAIMNGIYLQAVLKGWCNSMLFTLALLLLDGVMWGLLNSADSALLLGTSVLVVALAGMMFVTRNIDWYAFSLPKMKASKEVTTDDELRIWK
- total protein half-life in vivo [10]: 1.65 h
- total protein half-life in vivo [11]: 3.18 ± 0.29 h
- total protein half-life in vivo [12]: 5.81 ± 0.98 h

Sequence: MLLAGSSLLTLLDDIATLLDDISVMGKLAAKKTAGVLGDDLSLNAQQVSGVRANRELPVVWGVAKGSLINKVILVPLALIISAFIPWAITPLLMIGGAFLCFEGVEKVLHMLEARKHKEDPAQSQQRLEKLAAQDPLKFEKDKIKGAIRTDFILSAEIVAITLGIVAEAPLLNQVLVLSGIALVVTVGVYGLVGVIVKIDDLGYWLAEKSSALMQALGKGLLIIAPWLMKALSIVGTLAMFLVGGGIVVHGIAPLHHAIEHFAGQQSAVVAMILPTVLNLILGFIIGGIVVLGVKAVEKMRGQAH
- total protein half-life in vivo [1]: 5.24 ± 0.46 h
- total protein half-life in vivo [3]: 5.53 ± 0.22 h
- total protein half-life in vivo [4]: 5.52 ± 0.47 h
- total protein half-life in vivo [5]: 5.54 ± 0.83 h
- total protein half-life in vivo [6]: 3.16 ± 0.37 h
- total protein half-life in vivo [7]: 5.92 ± 1.3 h
- total protein half-life in vivo [8]: 10.3 ± 1.3 h
- total protein half-life in vivo [9]: 5.79 ± 0.4 h
- total protein half-life in vivo [10]: 12.22 ± 0.064 h
- total protein half-life in vivo [11]: 5.22 ± 0.29 h
- total protein half-life in vivo [12]: 10.4 ± 0.92 h

Sequence: MLLATALLIVGLLLVVYSADRLVFAASILCRTFGIPPLIIGMTVVSIGTSLPEVIVSLAASLHEQRDLAVGTALGSNIINILLILGLAALVRPFTVHSDVLRRELPLMLLVSVVAGSVLYDGQLSRSDGIFLLFLAVLWLLFIVKLARQAERQGTDSLTREQLAELPRDGGLPVAFLWLGIALIIMPVATRMVVDNATVLANYFAISELTMGLTAIAIGTSLPELATAIAGVRKGENDIAVGNIIGANIFNIVIVLGLPALITPGEIDPLAYSRDYSVMLLVSIIFALLCWRRSPQPGRGVGVLLTGGFIVWLAMLYWLSPILVE
- total protein half-life in vivo [1]: 4.93 h

Sequence: MLLNMMCGRQLSAISLCLAVTFAPLFNAQADEPEVIPGDSPVAVSEQGEALPQAQATAIMAGIQPLPEGAAEKARTQIESQLPAGYKPVYLNQLQLLYAARDMQPMWENRDAVKAFQQQLAEVAIAGFQPQFNKWVELLTDPGVNGMARDVVLSDAMMGYLHFIANIPVKGTRWLYSSKPYALATPPLSVINQWQLALDKGQLPTFVAGLAPQHPQYAAMHESLLALLCDTKPWPQLTGKATLRPGQWSNDVPALREILQRTGMLDGGPKITLPGDDTPTDAVVSPSAVTVETAETKPMDKQTTSRSKPAPAVRAAYDNELVEAVKRFQAWQGLGADGAIGPATRDWLNVTPAQRAGVLALNIQRLRLLPTELSTGIMVNIPAYSLVYYQNGNQVLDSRVIVGRPDRKTPMMSSALNNVVVNPPWNVPPTLARKDILPKVRNDPGYLESHGYTVMRGWNSREAIDPWQVDWSTITASNLPFRFQQAPGPRNSLGRYKFNMPSSEAIYLHDTPNHNLFKRDTRALSSGCVRVNKASDLANMLLQDAGWNDKRISDALKQGDTRYVNIRQSIPVNLYYLTAFVGADGRTQYRTDIYNYDLPARSSSQIVSKAEQLIR
- total protein half-life in vivo [1]: 5.42 ± 0.21 h
- total protein half-life in vivo [2]: 5.32 ± 1 h
- total protein half-life in vivo [3]: 5.764 ± 0.032 h
- total protein half-life in vivo [4]: 5.39 ± 0.3 h
- total protein half-life in vivo [5]: 4.989 ± 0.017 h
- total protein half-life in vivo [6]: 3.03 ± 0.053 h
- total protein half-life in vivo [7]: 6.5 ± 0.17 h
- total protein half-life in vivo [8]: 12.2 ± 1.1 h
- total protein half-life in vivo [9]: 5.57 ± 0.65 h
- total protein half-life in vivo [10]: 8.84 ± 0.75 h
- total protein half-life in vivo [11]: 4.75 ± 0.52 h
- total protein half-life in vivo [12]: 9.2 ± 1.2 h

Source: the supplement of paper PMC11246515
